Laboratory results taken from patent publication US20150231220A1 (GREEN CROSS, published 2015).

Key:
[1] = biological target: EGFR coated on the plate (competitive binding test) (UniProt P00533); assay: competitive ELISA on plate-coated EGFR; competitor GC1118 at […]; antibody:ligand molar ratio 1:10^5; remaining antibody binding
[2] = biological target: EGFR coated on the plate (competitive binding test) (UniProt P00533); assay: competitive ELISA on plate-coated EGFR; competitor GC1118 at […]; antibody:ligand molar ratio 1:10^4; remaining antibody binding
[3] = biological target: EGFR coated on the plate (competitive binding test) (UniProt P00533); assay: competitive ELISA on plate-coated EGFR; competitor cetuximab at […]; antibody:ligand molar ratio 1:10^5; remaining antibody binding
[4] = biological target: EGFR coated on the plate (competitive binding test) (UniProt P00533); assay: competitive ELISA on plate-coated EGFR; competitor cetuximab at […]; antibody:ligand molar ratio 1:10^4; remaining antibody binding
[5] = biological target: T1, EGFR coated on the plate (competitive binding test) (UniProt P00533 25-645, limits assumed); assay: competitive ELISA on plate-coated EGFR; competitor GC1118 at 1.5 nM; antibody:ligand molar ratio 1:10^4; remaining antibody binding
[6] = biological target: T1, EGFR coated on the plate (competitive …); assay: competitive ELISA on plate-coated EGFR; competitor cetuximab at 1.5 nM; antibody:ligand molar ratio 1:10^4; remaining antibody binding
[7] = biological target: T1, EGFR coated on the plate (competitive …); assay: competitive ELISA on plate-coated EGFR; competitor cetuximab at 1.5 nM; antibody:ligand molar ratio 1:10^5; remaining antibody binding
[8] = biological target: T1, EGFR coated on the plate (competitive …); assay: competitive ELISA on plate-coated EGFR; competitor GC1118 at 1.5 nM; antibody:ligand molar ratio 1:10^5; remaining antibody binding

Antibody binding (%) [1] | Antibody binding (%) [2] | Antibody binding (%) [3] | Antibody binding (%) [4] | Antibody binding (%) [5] | Antibody binding (%) [6] | Antibody binding (%) [7] | Antibody binding (%) [8] | Molecule
99.9% | 99.6% | 99.9% | 96.6% |  |  |  |  | Amphiregulin (from UniProt P15514 101-198) (ligand)
 |  |  |  | 40.4% | 80.2% | 51.1% | 18.9% | β-Cellulin (ligand, human, UniProt P35070 32-111, looked up, also called BTC; betacellulin) DGNSTRSPETNGLLCGDPEENCAATTTQSKRKGHFSRCPKQYKHYCIKGRCRFVVAEQTPSCVCDEGYIGARCERVDLFY
 |  |  |  | 65.1% | 96.2% | 76.1% | 31.2% | Heparin-binding EGF-like growth factor (ligand, human, UniProt Q99075 63-148, looked up, also called HB-EGF) DLQEADLDLLRVTLSSKPQALATPNKEEHGKRKKKGKGLGKKRDPCLRKYKDFCIHGECKYVKELRAPSCICHPGYHGERCHGLSL
